Data taken from PMC4754353.

Biological target: Nrp1 immobilized on the BLI biosensor (UniProt Q9QWJ9)
Experiment: BLI

Q: With “human glycyl-tRNA synthetase L129P mutant (L129P-GlyRS^CMT2D), non-tagged (enzyme)” as the substance, how does the Kd read?
A: 29.8 nM

Q: “human glycyl-tRNA synthetase P234KY mutant (P234KY-GlyRS^CMT2D), non-tagged (enzyme)” was tested. Which Kd did it give?
A: 209 nM
